Data published in US20240425837A1 (Novo Nordisk, published 2024).
No end group written: not given here.

Columns and labels:
Assay in all cases: ELISA, biotinylated 12-mer peptide on streptavidin, 2 ug/mL FLAG-tagged VHH, anti-FLAG-HRP
[1] = target: T1, FX activation peptide 12-mer ITWKPYDAADLD (SEQ ID NO:708) (human)
T1 peptide: ITWKPYDAADLD-biotin
Experimental: (§1) To determine whether the binding epitope of the anti-FX VHH polypeptide designated “cmpd #1” are located inside the activation peptide (AP) of human FX (SEQ ID NO:2), an ELISA assay was setup. 41 unique 12-mer peptide fragments spanning the 52 residues of the activation peptide with one amino acid spacing were immobilized in microtiter plate wells followed by incubation with the VHH polypeptide to be tested, and detection of bound ligand was performed by addition of a secondary HRP-labelled antibody.
(§2) The peptides were C-terminally conjugated to biotin and 50 μL of 1 μg/mL peptide solution was used for immobilization in discrete wells of the microtiter plate which was pre-coated with 1 μg/mL streptavidin. Each well was washed with washing buffer (10 mM Tris, 150 mM NaCl, 2.5 mM CaCl₂, 0.05% Tween 20, pH 8.60) followed by addition of 50 μL of 2 μg/mL FLAG-tagged anti-FX VHH polypeptide or IgG antibody to be tested. After 1 hour non-bound VHH polypeptide was washed off using washing buffer.
(§3) Bound anti-FX activation peptide ligand was detected by first binding a HRP-labelled secondary antibody (for FLAG-tagged VHH polypeptide: Anti-FLAG mAb M2-Peroxidase (HRP) (Sigma Aldrich, US) for 1 hour, and then adding 100 μL TMB-1 ELISA substrate (Kem-En-Tec Diagnostics, Denmark).

[2] = target: T2, FX activation peptide 12-mer TWKPYDAADLDP (SEQ ID NO:709) (human)
T2 peptide: TWKPYDAADLDP-biotin
Experimental: as §1, §2, §3

[3] = target: T3, FX activation peptide 12-mer ATSSSGEAPDSI (SEQ ID NO:697) (human)
T3 peptide: ATSSSGEAPDSI-biotin
Experimental: as §1, §2, §3

[4] = target: T4, FX activation peptide 12-mer ENPFDLLDFNQT (SEQ ID NO:722) (human)
T4 peptide: ENPFDLLDFNQT-biotin
Experimental: as §1, §2, §3

[5] = target: T5, FX activation peptide 12-mer NQTQPERGDNNL (SEQ ID NO:731) (human)
T5 peptide: NQTQPERGDNNL-biotin
Experimental: as §1, §2, §3

[6] = target: T6, FX activation peptide 12-mer SGEAPDSITWKP (SEQ ID NO:701) (human)
T6 peptide: SGEAPDSITWKP-biotin
Experimental: as §1, §2, §3

[7] = target: T7, FX activation peptide 12-mer PYDAADLDPTEN (SEQ ID NO:712) (human)
T7 peptide: PYDAADLDPTEN-biotin
Experimental: as §1, §2, §3

[8] = target: T8, FX activation peptide 12-mer SITWKPYDAADL (SEQ ID NO:707) (human)
T8 peptide: SITWKPYDAADL-biotin
Experimental: as §1, §2, §3

[9] = target: T9, FX activation peptide 12-mer SSSGEAPDSITW (SEQ ID NO:699) (human)
T9 peptide: SSSGEAPDSITW-biotin
Experimental: as §1, §2, §3

[10] = target: T10, FX activation peptide 12-mer AADLDPTENPFD (SEQ ID NO:715) (human)
T10 peptide: AADLDPTENPFD-biotin
Experimental: as §1, §2, §3

[11] = target: T11, FX activation peptide 12-mer YDAADLDPTENP (SEQ ID NO:713) (human)
T11 peptide: YDAADLDPTENP-biotin
Experimental: as §1, §2, §3

[12] = target: T12, FX activation peptide 12-mer DSITWKPYDAAD (SEQ ID NO:706) (human)
T12 peptide: DSITWKPYDAAD-biotin
Experimental: as §1, §2, §3

[13] = target: T13, FX activation peptide 12-mer TQPERGDNNLTR (SEQ ID NO:733) (human)
T13 peptide: TQPERGDNNLTR-biotin
Experimental: as §1, §2, §3

[14] = target: T14, FX activation peptide 12-mer ADLDPTENPFDL (SEQ ID NO:716) (human)
T14 peptide: ADLDPTENPFDL-biotin
Experimental: as §1, §2, §3

[15] = target: T15, FX activation peptide 12-mer PTENPFDLLDFN (SEQ ID NO:720) (human)
T15 peptide: PTENPFDLLDFN-biotin
Experimental: as §1, §2, §3

[16] = target: T16, FX activation peptide 12-mer AQATSSSGEAPD (SEQ ID NO:695) (human)
T16 peptide: AQATSSSGEAPD-biotin
Experimental: as §1, §2, §3

[17] = target: T17, FX activation peptide 12-mer DFNQTQPERGDN (SEQ ID NO:729) (human)
T17 peptide: DFNQTQPERGDN-biotin
Experimental: as §1, §2, §3

[18] = target: T18, FX activation peptide 12-mer SSGEAPDSITWK (SEQ ID NO:700) (human)
T18 peptide: SSGEAPDSITWK-biotin
Experimental: as §1, §2, §3

B1: Cmpd #1 (monovalent anti-FX VHH polypeptide, VHH-1.1) (VHH)
VHH: EVQLVESGGGLVQPGGSLRLSCAASGSIGAFDAMGWYRQAPGKQRELVAGIMVSRGNTNYTDSVKGRFTISRDNAKNTVYLQMNSLKPEDTAVYYCKAVKRPGPGYLEVWGQGTLVTVSS
notes: no protractor; FLAG-tagged in the peptide ELISA
B1 was tested, and the “ELISA signal normalized relative to the background signal” value [1] was 1.1 fold of background, the “ELISA signal normalized relative to the background signal” value [2] was 1.13 fold of background and the “ELISA signal normalized relative to the background signal” value [3] was 0.98 fold of background. The “ELISA signal normalized relative to the background signal” value [4] was 4 fold of background, the “ELISA signal normalized relative to the background signal” value [5] was 0.92 fold of background and the “ELISA signal normalized relative to the background signal” value [6] was 0.88 fold of background. For the same binder, the “ELISA signal normalized relative to the background signal” value [7] was 0.83 fold of background, the “ELISA signal normalized relative to the background signal” value [8] was 1.08 fold of background and the “ELISA signal normalized relative to the background signal” value [9] was 0.86 fold of background. For the same binder, the “ELISA signal normalized relative to the background signal” value [10] was 0.88 fold of background, the “ELISA signal normalized relative to the background signal” value [11] was 0.87 fold of background and the “ELISA signal normalized relative to the background signal” value [12] was 1.08 fold of background. For the same binder, the “ELISA signal normalized relative to the background signal” value [13] was 1.05 fold of background, the “ELISA signal normalized relative to the background signal” value [14] was 0.91 fold of background and the “ELISA signal normalized relative to the background signal” value [15] was 4.58 fold of background. For the same binder, the “ELISA signal normalized relative to the background signal” value [16] was 0.97 fold of background, the “ELISA signal normalized relative to the background signal” value [17] was 0.94 fold of background and the “ELISA signal normalized relative to the background signal” value [18] was 0.88 fold of background.
